In the supplement of paper PMC10567573:
± gives the standard deviation.

Assay: protein stability index of a GFP-peptide fusion (GPS, HEK-293T) (PSI 1-6); higher = more stable
Conditions: c terminus: a fixed tail appended
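Also: 24-mer peptide tiles fused after GFP, lentivirally expressed, FACS-sorted into six equal bins by GFP/DsRed ratio, decoded by Illumina sequencing, PSI is the read-weighted mean bin number.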

Sequence: PRFHMACPTFRVSIARLEMGPDEY [FBXO3]
- protein stability index (treatment: DMSO): 2.82 ± 0.21
- protein stability index (treatment: MLN4924 1 uM, 8 h): 2.72 ± 0.24

Sequence: TARFQRNHRLISEILSESVVPDVR [SMARCE1]
- protein stability index (treatment: MLN4924 1 uM, 8 h): 3.23 ± 0.11

Sequence: YQSKGYNDDYYEESYFTTRTYGEP [EMD]
- protein stability index (treatment: DMSO): 2.78 ± 0.2
- protein stability index (treatment: MLN4924 1 uM, 8 h): 3.22 ± 0.29

Sequence: VQKDKYPEEFSLLKLQTKDGHRPE [SPATS1]
- protein stability index (treatment: DMSO): 4.64 ± 0.23
- protein stability index (treatment: MLN4924 1 uM, 8 h): 5 ± 0.33

Sequence: YIEMQTDPANCDYVIVSGAQRKEE [YJU2B]
- protein stability index (treatment: DMSO): 4.2 ± 0.2
- protein stability index (treatment: MLN4924 1 uM, 8 h): 4.57 ± 0.36

Sequence: IGPLETMHLNAEGMLSYCDRYSEG [CRYL1]
- protein stability index (treatment: DMSO): 3.47 ± 0.48
- protein stability index (treatment: MLN4924 1 uM, 8 h): 3.27 ± 0.28

Sequence: SVAFAVAWFLPMPQKSLFFHHIPS [SLC19A2]
- protein stability index (treatment: DMSO): 3.65 ± 0.2
- protein stability index (treatment: MLN4924 1 uM, 8 h): 3.31 ± 0.23

Sequence: LKNKKGAKQQKFIKAVTHQVKFGQ [ZC3H15]
- protein stability index (treatment: DMSO): 3.14 ± 0.57
- protein stability index (treatment: MLN4924 1 uM, 8 h): 3.25 ± 0.39

Sequence: TGVELAPRSAEPGYLVTKVVAVDR [PCDHGA10]
- protein stability index (treatment: DMSO): 3.94 ± 0.34
- protein stability index (treatment: MLN4924 1 uM, 8 h): 3.93 ± 0.084

Sequence: MATRSSDWLRRPLGEDNQPETQLF [TLE6]
- protein stability index (treatment: DMSO): 3.91 ± 0.1
- protein stability index (treatment: MLN4924 1 uM, 8 h): 3.87 ± 0.1

Sequence: GDWIGLYRHFLKSPNFDGWFKTRR [DENND6A]
- protein stability index (treatment: DMSO): 2.82 ± 0.038
- protein stability index (treatment: MLN4924 1 uM, 8 h): 2.49 ± 0.49

Sequence: EKQIRSFLIEGPLINTIRVVCASY [PLEKHN1]
- protein stability index (treatment: DMSO): 3.13 ± 0.74
- protein stability index (treatment: MLN4924 1 uM, 8 h): 2.79 ± 0.48

Sequence: SRLQLLGATCMFVASKMKETIPLT [CCND1]
- protein stability index (treatment: DMSO): 2.69 ± 0.44
- protein stability index (treatment: MLN4924 1 uM, 8 h): 2.69 ± 0.66

Sequence: CGINANDVKKLEEAGFHTVEAVAY [RAD51]
- protein stability index (treatment: DMSO): 2.58 ± 0.25
- protein stability index (treatment: MLN4924 1 uM, 8 h): 2.47 ± 0.22

Sequence: LRLEREEYVLLKALALANSDSVHI [ESRRA]
- protein stability index (treatment: DMSO): 2.51 ± 0.15
- protein stability index (treatment: MLN4924 1 uM, 8 h): 2.27 ± 0.2

Sequence: NVNVTLLSKQAKFAYKDEYEKFKL [TMEM120A]
- protein stability index (treatment: DMSO): 2.9 ± 0.15
- protein stability index (treatment: MLN4924 1 uM, 8 h): 2.82 ± 0.23

Sequence: LSYVMSGYRCFVCPVEYNNDTNSF [CDS2]
- protein stability index (treatment: DMSO): 2.78 ± 0.42
- protein stability index (treatment: MLN4924 1 uM, 8 h): 2.82 ± 0.45

Sequence: KSQIMSLSHSPQEDWVLLGMANGQ [TLE6]
- protein stability index (treatment: DMSO): 3.15 ± 0.2
- protein stability index (treatment: MLN4924 1 uM, 8 h): 3.12 ± 0.17

Sequence: CWQGDPRVRPTFQEITSETEDLCE [RIPK4]
- protein stability index (treatment: DMSO): 4.44 ± 0.67
- protein stability index (treatment: MLN4924 1 uM, 8 h): 4.72 ± 0.24

Sequence: AYHDPMLKLSIMSEEELTHIFGDL [NET1]
- protein stability index (treatment: DMSO): 3.28 ± 0.24
- protein stability index (treatment: MLN4924 1 uM, 8 h): 3.5 ± 0.48

Sequence: DALGMDPMMEHEMGGHHPGADYPV [CTNNB1]
- protein stability index (treatment: DMSO): 4.51 ± 0.36
- protein stability index (treatment: MLN4924 1 uM, 8 h): 4.55 ± 0.16

Sequence: PRARRRLGSGPDRELRKPEEPENG [PWWP2B]
- protein stability index (treatment: DMSO): 5.43 ± 0.14
- protein stability index (treatment: MLN4924 1 uM, 8 h): 5.42 ± 0.2

Sequence: DDTPEVLNRALSNLSSRWKNWWVR [CDS2]
- protein stability index (treatment: DMSO): 2.89 ± 0.058
- protein stability index (treatment: MLN4924 1 uM, 8 h): 3.12 ± 0.25

Sequence: ELRNMCDEHIASEEPAEKEDLLQQ [CLCN6]
- protein stability index (treatment: DMSO): 5.38 ± 0.18
- protein stability index (treatment: MLN4924 1 uM, 8 h): 5.45 ± 0.12

Sequence: TIVFLDKEVFASRISNPSDDNSCE [PCMTD2]
- protein stability index (treatment: DMSO): 3.8 ± 0.4
- protein stability index (treatment: MLN4924 1 uM, 8 h): 3.83 ± 0.21

Sequence: VTKSPEKRSSLPRPSSILPPRRGV [MAP2]
- protein stability index (treatment: DMSO): 4.58 ± 0.16
- protein stability index (treatment: MLN4924 1 uM, 8 h): 4.72 ± 0.19

Sequence: GLPRSRDCRVDLGSEVYRMLREPA [PDLIM4]
- protein stability index (treatment: DMSO): 3.08 ± 0.15
- protein stability index (treatment: MLN4924 1 uM, 8 h): 3.39 ± 0.2

Sequence: SASSTGDLPKAKTRAADLLVNPLD [SRPK2]
- protein stability index (treatment: DMSO): 4.97 ± 0.29
- protein stability index (treatment: MLN4924 1 uM, 8 h): 4.99 ± 0.33

Sequence: FPKQILDQNNVIENEETGEFSIDN [MIA2]
- protein stability index (treatment: DMSO): 5.136 ± 0.027
- protein stability index (treatment: MLN4924 1 uM, 8 h): 5.06 ± 0.24

Sequence: GSQRARVVNTDHGSPEQLQIPVTD [SDE2]
- protein stability index (treatment: DMSO): 5.06 ± 0.22
- protein stability index (treatment: MLN4924 1 uM, 8 h): 4.98 ± 0.34

Sequence: RDVKKTGFVFGTTLIMLLSLAAFS [RTN3]
- protein stability index (treatment: DMSO): 3.03 ± 0.43
- protein stability index (treatment: MLN4924 1 uM, 8 h): 3.19 ± 0.39

Sequence: SEEGQNGSSPKSKTKWTKEDGHRT [ADD1]
- protein stability index (treatment: DMSO): 5.36 ± 0.29
- protein stability index (treatment: MLN4924 1 uM, 8 h): 5.36 ± 0.23

Sequence: TIKSLSAELLKANEIIKKLQGDLK [SASS6]
- protein stability index (treatment: DMSO): 2.16 ± 0.48
- protein stability index (treatment: MLN4924 1 uM, 8 h): 2.37 ± 0.36
